Experimental data reported in patent publication US6361968 (US Dept. of Health and Human Services, dated 1997).
Where two headings read alike, the source gives them in different places.

B1: AcidMax (Max with a polyglutamic acid extension) (designed binder)
chain: MASMTGGQQMGRDPDEEEDDEEELEELEDSFHSLRDSVPSLQGEKASRAQILDKATEYIQYMRRKNHTHQQDIDDLKRQNALLEQQVRALEKARSSAQLQT
B2: 4heptad-F (designed binder)
chain: ASMTGGQQMGRDPGGGLEQRAEELARENEELEKEAEELEQENAELEQEVLELESRNDRLRKEVEQLERELDTLRGIFRQLPESSLVKAMGNCA
notes: also called 4heptad-F zipper protein
B3: 4heptadCREB (CREB with the 4heptad acidic extension appended at the amino terminus) (designed binder)
chain: ASMTGGQQMGRDPDLEQRAEELARENEELEKEAEELEQENAELENRVAVLENQNKTLIEELKALKDLYCHKSD
notes: also called 4hep-CREB
B4: New4hepCREB (CREB with the new 4heptad extension, asparagine changed to leucine) (designed binder)
chain: MDYKDDDDKHMASMTGGQQMGRDPDLEQRAEELARENEELEKEAEELEQELAELENRVAVLENQNKTLIEELKALKDLYCHKSD
notes: also called New4heptadCREB; CMV500-4heptadCREB
B5: c-Fos (unmodified) (other)
chain: PDKVEQLSPEEEEKRRIRRERNKMAAAKCRNRRRELTDTLQAETDQLEDEKSALQTEIANLLKEKEKLEFILAAHRPACKIP
notes: also called human c-Fos protein
B6: new4heptadFos (4heptadFos with one asparagine of the acidic region changed to leucine) (designed binder)
chain: ASMTGGQQMGRDPDLEQRAEELARENEELEKEAEELEQELAELEAETDQLEDEKSALQTEIANLLKEKEKLEFILAAHRPACKIP
notes: also called N4heptad-Fos
B7: c-Jun (unmodified) (other, UniProt P05412 241-331, looked up)
chain: PLSPIDMESQERIKAERKRMRNRIAASKCRKRKLERIARLEEKVKTLKAQNSELASTANMLREQVAQLKQKVMNHVNSGCQLMLTQQLQTF
B8: 1heptad-F (designed binder)
chain: ASMTGGQQMGRDPGGGLEQENAELEQEVLELESRNDRLRKEVEQLERELDTLRGIFRQLPESSLVKAMGNCA
B9: 3heptad-F with the DP- N-terminal cap (designed binder)
chain: ASMTGGQQMGRDPLARENEELEKEAEELEQENAELEQEVLELESRNDRLRKEVEQLERELDTLRGIFRQLPESSLVKAMGNCA
notes: Built from the statement that DP- replaces DP-GGG; also called DP- cap
B10: 3heptad-F with the DP-D N-terminal cap (designed binder)
chain: ASMTGGQQMGRDPDLARENEELEKEAEELEQENAELEQEVLELESRNDRLRKEVEQLERELDTLRGIFRQLPESSLVKAMGNCA
notes: Built from the statement that DP-D replaces DP-GGG; also called DP-D cap; DPD cap
B11: 0heptad-F (F zipper with the basic region deleted) (designed binder)
chain: ASMTGGQQMGRDPGGGTQQEVLELESRNDRLRKEVEQLERELDTLRGIFRQLPESSLVKAMGNCA
notes: Made in E. coli; the initiator methionine is processed off; also called heterodimerizing zipper; 0heptad-F (H)
B12: C/EBP bZIP domain (GCN4-C/EBP chimeric protein) (other)
chain: SEYQPSLFALNPMGFSPLDGSKSTNENVSASTSTAKPMVGQLIFDKFIKTEEDPGKAKKSVDKNSNEYRVRRERNNIAVRKSRDKAKQRNVETQQKVLELTSDNDRLRKRVEQLSRELDTLRGIFRQLPESSLVKAMGNCA
notes: Made in E. coli; forms a homodimer; also called C/EBP-C/EBP; wild type C/EBP
B13: VBP-C/EBP chimeric protein (other)
chain: ASMTGGQQMGRDPLEEKVFVPDEQKDEKYWTRRKKNNVAAKRSRDARRLKENQTQQKVLELTSDNDRLRKRVEQLSRELDTLRGIFRQLPESSLVKAMGNCA
B14: GBF-C/EBP chimeric protein (other)
chain: PVKDERELKRQKRKQSNRESARRSRLRNEAECEQTQQKVLELTSDNDRLRKRVEQLSRELDTLRGIFRQLPESSLVKAMGNCA
B15: 2heptad-F (designed binder)
chain: ASMTGGQQMGRDPGGGLEKEAEELEQENAELEQEVLELESRNDRLRKEVEQLERELDTLRGIFRQLPESSLVKAMGNCA
B16: 3heptad-C/EBP (three heptad acidic extension appended onto the C/EBP leucine zipper) (designed binder)
chain: ASMTGGQQMGRDPGGGLARENEELEKEAEELEQENAELEQKVLELTSDNDRLRKRVEQLSRELDTLRGIFRQLPESSLVKAMGNCA
B17: 0heptadMax (dimerization domain of Max without an acidic extension) (designed binder)
chain: ASMTGGQQMGRDPDLEELEDSFHSLRDSVPSLQGEKASRAQILDKATEYIQYMRRKNHTHQQDIDDLKRQNALLEQQVRALEKARSSAQLQT
notes: domain: dimerization domain; also called OheptadMax

Experiments:
[1] = target: the molecule itself; assay: homodimer, dimerization study of FIG. 9
[2] = target: c-Myc bHLH protein (murine, UniProt P01108 368-454); assay: heterodimer with c-Myc, dimerization study of FIG. 9
[3] = target: B12; assay: thermal melt of the mixture (FIG. 1)
[4] = target: B13; assay: thermal melt of the mixture (FIG. 1)
[5] = target: B14; assay: thermal melt of the mixture (FIG. 1)
[6] = target: the molecule itself; assay: CD thermal melt, homodimer, 150 mM KCl
Description: (§1) CD analyses were performed as described in Materials and Methods of D. Krylov et al., 1994, *EMBO J.,* 13:2849–2861. T_m values were calculated as described in D, Krylov et al., 1994, Ibid, converted to K_{d(25)} and $\Delta G(25)$ using a $\Delta C_p$ of –0.96 kcal/mol° C.^-1 calculated from a T_m versus $\Delta H$ plot for all of the proteins as described herein. All thermal melts were reversible.
(§2) Table 1 presents the melting temperature (T_m,° C.), $\Delta G$ and k_d at 25° C. for CD thermal melts of a variety of proteins either as homodimers or an equimolar mixture of two proteins. […] The (L) denotes 'low' salt conditions (50 mM KCl, 25 mM Tris pH 8.0, 0.5 mM EDTA, 1 mM DTT) and the (H) denotes regular salt conditions (12.5 mM potassium phosphate, pH 7.4, 150 mM KCl, 0.25 mM EDTA, and 0.5 mM DTT). The latter conditions were used in Table 2. "0heptad-F" represents the F zipper with the basic region deleted. The RMS error in $\Delta G$ is 0.2 kcal/mol and 0.5 kcal/mol for homo- and heterodimers respectively.

[7] = target: B12; assay: CD thermal melt, equimolar mixture, 150 mM KCl
Description: as §2
(§3) The two chimeras were mixed with the four different length acidic extensions appended to the F zipper and their stability was determined from CD thermal melts.

[8] = target: B13; assay: CD thermal melt, equimolar mixture, 150 mM KCl
Description: as §2, §3

[9] = target: B14; assay: CD thermal melt, equimolar mixture, 150 mM KCl
Description: as §2, §3

[10] = target: the molecule itself; assay: CD thermal melt, homodimer, 150 mM KCl, Kd at 25 C
Description: as §1, §2

[11] = target: B12; assay: CD thermal melt, equimolar mixture, 150 mM KCl, Kd at 25 C
Description: as §2, §3

[12] = target: B13; assay: as above
Description: as §2, §3

[13] = target: B14; assay: as above
Description: as §2, §3

[14] = target: T1, CREB (unmodified) (UniProt P16220 254-327); assay: thermal melt, CREB with 4heptadCREB (FIG. 3)
T1 construct: also called CREB protein
T1 sequence (looked up): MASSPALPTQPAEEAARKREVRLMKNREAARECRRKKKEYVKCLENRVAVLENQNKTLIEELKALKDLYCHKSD

[15] = target: T1, CREB (unmodified); assay: thermal melt of the mixture (FIG. 3)
[16] = target: B7; assay: thermal melt of the mixture (FIG. 4)
[17] = target: B7; assay: from thermal melts of FIG. 4, Kd at 37 C
[18] = target: the molecule itself; assay: from thermal melts of FIG. 4, Kd at 37 C
[19] = target: B12; assay: CD thermal melts
[20] = target: B13; assay: CD thermal melts
[21] = target: B14; assay: CD thermal melts
[22] = target: B12; assay: thermal stability as heterodimers with C/EBP
[23] = target: B12; assay: CD thermal melt, equimolar mixture, 150 mM KCl
Description: as §1, §2

[24] = target: the molecule itself; assay: CD thermal melt, homodimer, 150 mM KCl, Kd at 25 C; remark: listed apart in the source
Description: as §1, §2

[25] = target: B12; assay: CD thermal melt, equimolar mixture, 150 mM KCl, Kd at 25 C
Description: as §1, §2

[26] = target: the molecule itself; assay: CD thermal melt, homodimer, low salt (50 mM KCl), Kd at 25 C
Description: as §1, §2

Sequence of c-Myc bHLH protein (P01108 368-454 limits assumed, form in doubt): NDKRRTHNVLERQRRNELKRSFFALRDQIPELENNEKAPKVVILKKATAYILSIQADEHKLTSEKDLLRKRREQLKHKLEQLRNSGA

In the case of B1, the Kd [1] is reported as 30 nM and the Kd [2] is reported as 0.002 nM.

For B2, the “melting temperature (given as ellipticity)” value (shortened to “melting temperature”) [3] was 65 °C, the “melting temperature” value [4] was 65 °C and the “melting temperature” value [5] was 65 °C. The “deltaG at 25 C” value [6] was -6.3 kcal/mol, the Tm [7] was 64.8 °C and the “deltaG at 25 C” value [7] was -14.2 kcal/mol. For the same binder, the Tm [8] was 65.2 °C, the “deltaG at 25 C” value [8] was -14.8 kcal/mol and the Tm [9] was 65 °C. For the same binder, the “deltaG at 25 C” value [9] was -14.5 kcal/mol, the Kd [10] was 20000 nM and the Kd [11] was 0.04 nM. The Kd [12] was 0.01 nM and the Kd [13] was 0.03 nM.

For B3, the Tm [14] was 53 °C.

Work on B4 yielded a Tm [15] of 69.5 °C.

Binder B5 has a Tm [16] of 50 °C and a Kd [17] of 200 nM.

B6 was tested, and the Tm [16] was 72 °C.

B7 gave a Kd [18] of 20000 nM.

B8 was tested, and the “stabilization against 0heptad-F” value [19] was 1.7 kcal/mol, the “stabilization against 0heptad-F” value [20] was 0.9 kcal/mol and the “stabilization against 0heptad-F” value [21] was 1.3 kcal/mol. The “deltaG at 25 C” value [6] was -8 kcal/mol, the Tm [7] was 60.8 °C and the “deltaG at 25 C” value [7] was -13.5 kcal/mol. The Tm [8] was 60.5 °C, the “deltaG at 25 C” value [8] was -13.1 kcal/mol and the Tm [9] was 62 °C. The “deltaG at 25 C” value [9] was -13.2 kcal/mol, the Kd [10] was 1000 nM and the Kd [11] was 0.1 nM. The Kd [12] was 0.3 nM and the Kd [13] was 0.2 nM.

With B9 the “fold stability against the DP-GGG cap” value [22] was 3 fold.

In the case of B10, the “fold stability against the DP-GGG cap” value [22] is reported as 3 fold.

In the case of B11, the “deltaG at 25 C” value [6] is reported as -8 kcal/mol, the Tm [23] is reported as 55.4 °C and the Tm [7] is reported as 55.4 °C. For the same binder, the “deltaG at 25 C” value [7] was -11.8 kcal/mol, the Tm [8] was 55.1 °C and the “deltaG at 25 C” value [8] was -12.2 kcal/mol. The Tm [9] was 55.7 °C, the “deltaG at 25 C” value [9] was -11.9 kcal/mol and the Kd [24] was 2000 nM. For the same binder, the Kd [10] was 1000 nM, the Kd [25] was 3 nM and the Kd [11] was 3 nM. The Kd [12] was 1 nM and the Kd [13] was 2 nM.

For B12, the “deltaG at 25 C” value [6] was -10.9 kcal/mol, the Kd [24] was 10 nM and the Kd [10] was 10 nM. The Kd [26] was 30 nM.

B13 was tested, and the “deltaG at 25 C” value [6] was -11.1 kcal/mol and the Kd [10] was 8 nM.

B14 was tested, and the “deltaG at 25 C” value [6] was -10.6 kcal/mol and the Kd [10] was 20 nM.

With B15 the “deltaG at 25 C” value [6] was -7.4 kcal/mol, the Tm [7] was 63.6 °C and the “deltaG at 25 C” value [7] was -13.9 kcal/mol. The Tm [8] was 62.8 °C, the “deltaG at 25 C” value [8] was -13.8 kcal/mol and the Tm [9] was 63.1 °C. For the same binder, the “deltaG at 25 C” value [9] was -13.6 kcal/mol, the Kd [10] was 4000 nM and the Kd [11] was 0.07 nM. It also gave a Kd [12] of 0.09 nM and a Kd [13] of 0.1 nM.

B16 was tested, and the Tm [7] was 61 °C, the “deltaG at 25 C” value [7] was -12.6 kcal/mol and the Kd [11] was 0.6 nM.

B17 gave a Kd [1] of 100 nM.
